Data taken from patent US20120329067, “Methods of Generating Zinc Finger Nucleases Having Altered Activity” (published 2012).

Assays:
[1] = molecular target: E3 zinc finger protein (three C-terminal fingers of E2C) (artificial); assay: EMSA; conditions: tags: no cleavage domain
[2] = molecular target: E4 zinc finger protein (four C-terminal fingers of E2C) (artificial); assay: EMSA; conditions: tags: no cleavage domain
[3] = molecular target: E5 zinc finger protein (five C-terminal fingers of E2C) (artificial); assay: EMSA; conditions: tags: no cleavage domain
E5 zinc finger protein (five C-terminal fingers of E2C) (artificial), sequence (chain, as listed by the source): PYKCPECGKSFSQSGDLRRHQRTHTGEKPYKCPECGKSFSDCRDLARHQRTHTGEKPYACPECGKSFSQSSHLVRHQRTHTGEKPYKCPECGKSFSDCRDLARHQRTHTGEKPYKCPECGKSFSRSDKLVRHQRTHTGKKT

[4] = molecular target: E6 (E2C) six-finger zinc finger protein (artificial); assay: EMSA; conditions: tags: no cleavage domain
E6 (E2C) six-finger zinc finger protein (artificial), sequence (chain, as listed by the source): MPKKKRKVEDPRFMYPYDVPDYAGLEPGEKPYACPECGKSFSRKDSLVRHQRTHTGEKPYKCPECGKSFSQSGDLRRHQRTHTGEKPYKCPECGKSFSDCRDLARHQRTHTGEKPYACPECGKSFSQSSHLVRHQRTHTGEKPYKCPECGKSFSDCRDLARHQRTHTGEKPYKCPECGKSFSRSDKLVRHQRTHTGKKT

P3 ZFN FCD S418P = P3 ZFN FCD S418P (artificial, UniProt P14870 SEQ:1-284, S418P (FokI numbering)); assay: cell_activity; conditions: chain copies: 2 inferred
P3 ZFN FCD S418P, sequence (P14870 other isoform, or with tags, fused parts or gaps S418P (FokI numbering) | S418P S418P): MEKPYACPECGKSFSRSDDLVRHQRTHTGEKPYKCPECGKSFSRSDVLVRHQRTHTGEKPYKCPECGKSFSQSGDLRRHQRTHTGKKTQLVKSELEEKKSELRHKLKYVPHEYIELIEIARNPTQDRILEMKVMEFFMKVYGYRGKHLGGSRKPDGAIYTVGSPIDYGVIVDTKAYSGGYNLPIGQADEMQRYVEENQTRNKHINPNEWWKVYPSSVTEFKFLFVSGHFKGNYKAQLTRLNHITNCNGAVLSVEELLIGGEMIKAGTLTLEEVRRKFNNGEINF

P3 ZFN FCD K441E = P3 ZFN FCD K441E (artificial, UniProt P14870 SEQ:1-284, K441E (FokI numbering)); assay: cell_activity; conditions: chain copies: 2 inferred
P3 ZFN FCD K441E, sequence (P14870 other isoform, or with tags, fused parts or gaps K441E (FokI numbering) | K441E K441E): as the sequence (P14870 other isoform, or with tags, fused parts or gaps S418P (FokI numbering) | S418P S418P) above, with P123S, K146E counted along it

E3 zinc finger protein (three C-terminal fingers of E2C) (artificial), sequence (chain, as listed by the source): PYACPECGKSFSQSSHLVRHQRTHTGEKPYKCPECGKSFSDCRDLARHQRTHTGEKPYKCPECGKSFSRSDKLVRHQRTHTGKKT
E4 zinc finger protein (four C-terminal fingers of E2C) (artificial), sequence (chain, as listed by the source): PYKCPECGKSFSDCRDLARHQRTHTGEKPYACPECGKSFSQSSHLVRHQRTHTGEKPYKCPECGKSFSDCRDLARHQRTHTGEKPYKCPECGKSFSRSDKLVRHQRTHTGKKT

B1: E3 binding site (dsDNA)
DNA 1: GGGGCCGGA
DNA 2: TCCGGCCCC
- Kd [1]: 35 nM

B2: E4 binding site (dsDNA)
DNA 1: GGGGCCGGAGCC
DNA 2: GGCTCCGGCCCC
- Kd [2]: 10.6 nM

B3: E5 binding site (dsDNA)
DNA 1: GGGGCCGGAGCCGCA
DNA 2: TGCGGCTCCGGCCCC
- Kd [3]: 4.2 nM

B4: E6 (E2C) binding site (dsDNA)
DNA 1: GGGGCCGGAGCCGCAGTG
DNA 2: CACTGCGGCTCCGGCCCC
- Kd [4]: 0.85 nM

B5: P3/P3 cleavage site, MluI spacer (dsDNA)
DNA 1: CGCCACTGCACGCGTGCAGTGGCG
DNA 2: CGCCACTGCACGCGTGCAGTGGCG
- binding signal (P3 ZFN FCD S418P): > 10 fold of wt FCD activity
- binding signal (P3 ZFN FCD K441E): > 5 fold of wt FCD activity
